Data on three molecules can be found in patent US6521814B1, “Use of ligands for treatment of diseases responsive to retinoids” (Institut National de la Santa et de la Recherche Medicale, priority 1997, dated 2003).

Common to all, as to details: tags: ΔAB truncations, bacterially expressed, from H. Gronemeyer
Data set [1] has as its target T1, RARα(ΔAB)/RXRα(ΔAB) heterodimer (Mus musculus, UniProt P11416;P28700 P11416:88-462,P28700:140-467).
T1 sequence 1: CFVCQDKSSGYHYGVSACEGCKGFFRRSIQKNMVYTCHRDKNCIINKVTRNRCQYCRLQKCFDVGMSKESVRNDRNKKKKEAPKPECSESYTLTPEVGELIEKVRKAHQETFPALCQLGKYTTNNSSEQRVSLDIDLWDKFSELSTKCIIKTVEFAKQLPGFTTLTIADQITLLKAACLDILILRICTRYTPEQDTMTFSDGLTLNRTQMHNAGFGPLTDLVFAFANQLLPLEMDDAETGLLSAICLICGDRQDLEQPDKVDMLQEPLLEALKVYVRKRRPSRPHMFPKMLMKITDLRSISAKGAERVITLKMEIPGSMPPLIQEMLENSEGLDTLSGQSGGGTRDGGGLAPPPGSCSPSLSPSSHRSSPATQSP
T1 sequence 2: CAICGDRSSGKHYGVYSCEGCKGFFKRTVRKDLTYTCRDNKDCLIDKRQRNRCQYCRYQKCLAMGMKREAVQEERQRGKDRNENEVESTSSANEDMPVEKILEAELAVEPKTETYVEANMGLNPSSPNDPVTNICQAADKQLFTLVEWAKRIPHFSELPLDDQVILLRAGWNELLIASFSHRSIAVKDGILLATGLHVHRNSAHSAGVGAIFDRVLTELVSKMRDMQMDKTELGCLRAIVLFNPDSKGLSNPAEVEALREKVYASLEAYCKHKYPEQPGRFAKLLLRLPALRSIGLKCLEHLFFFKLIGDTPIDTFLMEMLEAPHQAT
As to the kind of experiment: competition; competes more efficiently than native RARE D2. The text has this: (§1) DNA binding competition assays. Gel shift analysis using labeled RARE D2 (SEQ ID NO:2) and recombinant RARα and RXRα as indicated. As competitors, RARE D2 (SEQ ID NO:2), RAREβ2 (SEQ ID NO:5) and the mutant […] and […] cold oligonucleotides (SEQ ID NO:3) were used as indicated at 5, 50- and 100-fold molar excess. The black arrowhead indicates the shifted complex.
(§2) To further characterize the D2R RARE element and its binding affinity to retinoid receptors, mutations were introduced into this sequence generating D2 ml (SEQ ID NO:3) and D2 m2 (SEQ ID NO:4) (FIG. 7A). These mutated oligonucleotides were used for competition in gel-shift assays (FIG. 8).
(§3) DNA Binding Assays. A 29-bp synthetic oligonucleotide (SEQ ID NO:2) corresponding to the RARE region in the D2R promoter (SEQ ID NO:1) (from positions −76 to −49), in addition to two mutated oligonucleotides (SEQ ID NOs:3 and 4) (FIG. 7A) were used in gel retardation assays. A synthetic oligonucleotide corresponding to the RARE-β2 (SEQ ID NO:5) (Mader, S., et al., *J. Biol. Chem.* 268:591–600 (1993)) was used as positive control. Bacterially-expressed purified mouse RARα (ΔAB) and RXRα (ΔAB) proteins were kindly provided by H. Gronemeyer.

In data set [2] the target is T1, RARα(ΔAB)/RXRα(ΔAB) heterodimer. As to the kind of experiment: competition; no competition even at 100-fold excess.
Excerpt: as §1, §2, §3

The target is the same in data set [3]. Kind of data set: competition; drastic decrease of labeled RARE D2 complex at 5-fold excess, complete at 50-fold; stronger than RARE D2.
Excerpt: as §1, §3

B1: D2m2 (dsDNA)
DNA 1: AGCTTCCTCGTGACCAGGGTGACCCCGCG
DNA 2: CGCGGGGTCACCCTGGTCACGAGGAAGCT
Regarding B1, in data set [1], the binding result is given as “binds”.

B2: D2m1 (dsDNA)
DNA 1: AGCTTCCTCGGTGCGAGGGGTACGCCGCG
DNA 2: CGCGGCGTACCCCTCGCACCGAGGAAGCT
For the molecule B2, in data set [2], the binding result is given as “no binding”.

B3: RAREβ2 (dsDNA)
DNA 1: GGGTAGGGTTCACCGAAAGTTCACTG
DNA 2: CAGTGAACTTTCGGTGAACCCTACCC
For B3, the binding result in data set [3] is listed as “binds”.
